The values below come from patent US20200345804A1.

Where no end group is shown, it is not given here. [ ]: non-standard residue; d: D form. NMeA = CN[C@@H](C)C(=O)O A value given as a limit tells only on which side of the number the result lay.

Experiment [1] concerns the target BIR3 domain of XIAP (human, residues 253-347, N-terminal His tag) (human). Briefly: ITC.
For experiment [2] the target is unchanged. Briefly: ITC, full curve titration. A general note: Isothermal titration calorimetry measures the heat released or taken up as one component is titrated into another.
The target is the same in experiment [3]. Briefly: DELFIA displacement of AVPI-Biotin.
In experiment [4] the target is recombinant BIR3 domain of cIAP2 with N-terminal 6xHis tag (Artificial Sequence). The experiment is described as follows: DELFIA displacement of AVPI-Biotin.
For experiment [5], the target named is recombinant BIR3 domain of cIAP1 with N-terminal 6xHis tag (Artificial Sequence). The experiment is described as follows: DELFIA displacement of AVPI-Biotin.
In experiment [6] the target is BIR3 domain of XIAP (human, residues 253-347, N-terminal His tag) (human). Briefly: DELFIA displacement, 2-h incubation.
The target in experiment [7] is recombinant BIR3 domain of cIAP1 with N-terminal 6xHis tag (Artificial Sequence). The experiment is described as follows: DELFIA displacement, 2-h incubation.
The target of experiment [8] is recombinant BIR3 domain of cIAP2 with N-terminal 6xHis tag (Artificial Sequence). Briefly: DELFIA displacement, 2-h incubation.
In experiment [9] the target is BIR3 domain of XIAP (human, residues 253-347, N-terminal His tag) (human). Briefly: ITC, difference to N-Me-AVPF-NH2.
For experiment [10], the target named is BIR2 domain of XIAP (Artificial Sequence). Briefly: DELFIA displacement assay on XIAP BIR2.
The target of experiment [11] is BIR3 domain of XIAP (human, residues 253-347, N-terminal His tag) (human). Briefly: DELFIA displacement of AVPI-Biotin. The source holds these as a separate data set.
Target sequence in this assay (chain, as listed by the source): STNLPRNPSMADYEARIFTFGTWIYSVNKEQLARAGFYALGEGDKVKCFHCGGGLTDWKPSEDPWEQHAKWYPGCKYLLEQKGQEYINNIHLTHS
For experiment [12], the target named is recombinant BIR3 domain of cIAP1 with N-terminal 6xHis tag (Artificial Sequence). Briefly: DELFIA displacement of AVPI-Biotin. The source holds these as a separate data set.
Target sequence in this assay (chain, as listed by the source limits assumed): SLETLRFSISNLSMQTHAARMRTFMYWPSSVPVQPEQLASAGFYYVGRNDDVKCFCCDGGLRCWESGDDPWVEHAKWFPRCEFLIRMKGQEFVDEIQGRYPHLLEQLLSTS
The target in experiment [13] is recombinant BIR3 domain of cIAP2 with N-terminal 6xHis tag (Artificial Sequence). The experiment is described as follows: DELFIA displacement of AVPI-Biotin. This is another data set of the same source.
Target sequence in this assay (chain, as listed by the source limits assumed): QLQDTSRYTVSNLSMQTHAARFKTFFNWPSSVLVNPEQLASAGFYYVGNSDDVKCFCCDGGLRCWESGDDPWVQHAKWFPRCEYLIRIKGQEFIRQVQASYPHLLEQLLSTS

One may read the Kd as the free concentration of one partner at which half of the binding sites on the other are occupied at equilibrium, for simple one-to-one binding. A high value points to lower affinity. Usually IC50 stands for the concentration at which inhibition is half-maximal. Consider AVPI (peptide), for which, in experiment [1], the -TΔS is -4 kcal/mol, the Kd came out at 825 nM and the ΔG is -8.3 kcal/mol. The same molecule came in with a ΔH in experiment [2] of -4.3 kcal/mol. Also, in experiment [3], the IC50 amounted to 957 nM. In experiment [4], the IC50 came to 320 nM.

On to Ala-pTyr-Pro-(4F)Phe-NH2 (peptide), for which, in [1], the -TΔS was 3.04 kcal/mol, the Kd amounted to 205 nM and the ΔG is -9.13 kcal/mol. In [2], this molecule showed a ΔH of -12.2 kcal/mol. In addition, the IC50 in experiment [3] was 40.1 nM. In experiment [5], the half-maximal inhibitory concentration (IC50) is 124 nM. Also, the IC50 in experiment [4] came out at 143 nM.

Turning to MeHN-A-Dap(3-FSB)-P-F-NH2 (peptide), the IC50 in experiment [3] was 47.3 nM.

As for MeHN-A-Dap(4-FSBz)-P-F-CONH2 (peptide), the IC50 is 17.1 nM in experiment [6], 18.6 nM in experiment [7] and 85.7 nM in [8].

In the case of “MeHN-A-Dap(p-OSO2F-Benzamide)-P-F-CONH2 (peptide)”, the half-inhibitory concentration (IC50) was 335 nM in [7] and above 1000 nM in experiment [8].

On to MeHN-A-F(OSO2F)-P-F-CONH2 (peptide), for which, in [8], the IC50 is 343 nM.

Regarding MeNH-A-Dap(4-VSB)P-F-CONH2 (peptide), the figures for the IC50 in experiment [6], in experiment [7] and in [8] were 31 nM, 4.3 nM and 1.3 nM, respectively.

For the molecule MeNH-A-hF(OSO2F)-P-F-CONH2 (peptide), the results for the IC50 in [6], in experiment [7] and in experiment [8] were 197 nM, 26 nM and 188 nM, respectively.

In experiment [9], “N-Me-Ala-(p-phosphonomethyl)Phe-Pro-Phe-NH2 (peptide)” registered a δ(-TΔS) of 4 kcal/mol and a δ(ΔH) of -4.4 kcal/mol. Besides, the IC50 in experiment [3] came to 35 nM.

The molecule NMe-Ala-pSFB-Dap-Pro-Phe-NH2 (peptide) yielded an IC50 in [10] of 2220 nM.

Turning to “compound 2 (N-Me-Ala-P2-Pro-Phe-NH2, P2 = (4SO3^-)-Phe) (peptide)”, in experiment [9], the δ(-TΔS) was determined as 0 kcal/mol and the δ(ΔH) is -0.5 kcal/mol. Further, the IC50 in [5] turned out to be 144 nM.

In [1], “compound 3 (N-Me-Ala-P2-Pro-Phe-NH2, P2 = (4-NO2)-Phe) (peptide)” returned a -TΔS of -0.1 kcal/mol, a Kd of 280 nM and a ΔH of -8.9 kcal/mol. Also, in [9], the δ(-TΔS) turned out to be 0.9 kcal/mol and the δ(ΔH) was -1.1 kcal/mol.

For the molecule “compound 5 (N-Me-Ala-P2-Pro-Phe-NH2, P2 = (3Cl-4CF3)Phe) (peptide)”, in [1], the -TΔS is -0.9 kcal/mol, the Kd turned out to be 190 nM and the ΔH is -8.3 kcal/mol. Further, in experiment [9], the δ(-TΔS) worked out at 0.1 kcal/mol and the δ(ΔH) was -0.5 kcal/mol.

Take “compound 6 (N-Me-Ala-P2-Pro-Phe-NH2, P2 = (3F-4CF3)Phe) (peptide)”: in experiment [1], the -TΔS is -1.2 kcal/mol, the Kd worked out at 155 nM and the ΔH is -8.1 kcal/mol. Moreover, in [9], the δ(-TΔS) was -0.2 kcal/mol and the δ(ΔH) is -0.3 kcal/mol.

“compound 7 (N-Me-Ala-P2-Pro-Phe-NH2, P2 = (3Cl-5CF3)Phe) (peptide)”: in experiment [1], the -TΔS was -1.3 kcal/mol, the Kd worked out at 133 nM and the ΔH was -8 kcal/mol. In experiment [9], this molecule came in with a δ(-TΔS) of -0.3 kcal/mol and a δ(ΔH) of -0.2 kcal/mol.

Turning to “compound 8 (N-Me-Ala-P2-Pro-Phe-NH2, P2 = Cyclohexyl Glycine) (peptide)”, in experiment [1], the -TΔS was -1.4 kcal/mol, the Kd stood at 354 nM and the ΔH is -7.8 kcal/mol. Moreover, in [9], the δ(-TΔS) is -0.4 kcal/mol and the δ(ΔH) came to 0 kcal/mol.

In experiment [1], “compound 9 (N-Me-Ala-P2-Pro-Phe-NH2, P2 = Dab) (peptide)” gave a -TΔS of -1.4 kcal/mol, a Kd of 230 nM and a ΔH of -7.7 kcal/mol. In experiment [9], this molecule registered a δ(-TΔS) of -0.4 kcal/mol and a δ(ΔH) of 0.1 kcal/mol.

On to “compound 10 (N-Me-Ala-P2-Pro-Phe-NH2, P2 = (2F-4CF3)Phe) (peptide)”, for which, in experiment [1], the -TΔS was -1.8 kcal/mol, the Kd was 194 nM and the ΔH was -7.4 kcal/mol. Besides, in [9], the δ(-TΔS) was -0.8 kcal/mol and the δ(ΔH) worked out at 0.4 kcal/mol.

In experiment [1], “compound 11 (N-Me-Ala-P2-Pro-Phe-NH2, P2 = Phe(4-CF3)) (peptide)” displayed a -TΔS of -1.9 kcal/mol, a Kd of 213 nM and a ΔH of -7.2 kcal/mol. In experiment [9], this molecule showed a δ(-TΔS) of -0.9 kcal/mol and a δ(ΔH) of 0.6 kcal/mol.

As for “compound 12 (N-Me-Ala-P2-Pro-Phe-NH2, P2 = (4-OCF3)Phe) (peptide)”, in experiment [1], the -TΔS was -1.9 kcal/mol, the Kd came to 227 nM and the ΔH was -7.1 kcal/mol. Besides, in [9], the δ(-TΔS) was -0.9 kcal/mol and the δ(ΔH) worked out at 0.7 kcal/mol.

In [1], “compound 13 (N-Me-Ala-P2-Pro-Phe-NH2, P2 = (p-guanidino)Phe) (peptide)” came in with a -TΔS of -2.3 kcal/mol, a Kd of 182 nM and a ΔH of -6.9 kcal/mol. Moreover, in [9], the δ(-TΔS) is -1.3 kcal/mol and the δ(ΔH) was 0.9 kcal/mol.

In [1], “compound 14 (N-Me-Ala-P2-Pro-Phe-NH2, P2 = (2F-4CF3-5Me)Phe) (peptide)” yielded a -TΔS of -3.3 kcal/mol, a Kd of 81 nM and a ΔH of -6.4 kcal/mol. In experiment [9], this molecule yielded a δ(-TΔS) of -2.3 kcal/mol and a δ(ΔH) of 1.4 kcal/mol.

AVPF: in [1], the Kd is 175 nM. In experiment [2], this molecule returned a ΔH of -7.64 kcal/mol. Moreover, the IC50 in experiment [11] was found to be 60 nM; in experiment [12] it was 50.9 nM; in [13] it was 168 nM.

As for [NMeA]VPF-NH2 [N-Me-AVPF-NH2], in experiment [1], the -TΔS was -1 kcal/mol and the ΔH was -7.8 kcal/mol.
